Experimental findings from patent US6828106B2, “Methods and compositions using coiled binding partners” (Cyclacel Limited, priority 1999, dated 2004) are described below.

Data set [1] deals with T1, TEV protease (Tobacco etch virus, UniProt P04517).
T1 construct: Proteolytic cleavage was initiated by the addition of TEV protease (20U, Gibco Life Technologies); histidine tag; purchased Gibco Life Technologies
Briefly: TEV protease FP assay with homodimer-forming reporter peptide. In kind it is biochemical. Particulars: substrate: fluorescein/biotin-labeled reporter peptide homodimer; FIG. 10; read-out: Km of TEV protease by FP analysis. The procedure:
(§1) TEV protease activity and inhibition of TEV protease activity was determined by using a peptide capable of forming a homodimer, wherein homodimer formation is decreased following TEV protease cleavage of the peptide, according to the following method.
For FP analysis the reporter peptide (sequence recited above) was labeled with fluorescein or with biotin. The labeled peptides were incubated at a total peptide concentration of 6 μM (6:1 ratio, biotin:F) in 50 mM Tris, pH 8, 0.5 mM EDTA, 0.1 mg/ml BSA and 1 mM DTT at 30° C. for 5 minutes in a total volume of 100 μl. Proteolytic cleavage was initiated by the addition of TEV protease (20U), and monitored during the reaction time course by measuring the polarization of fluorescein (excitation 485 nm, emission 520 nm) over time. Initial rates of change of fluorescein polarization were determined for the linear portion of the reaction.
(§2) The activity of the TEV protease inhibitor iodacetamide was determined by FRET or FP assays performed as described above in the absence of iodacetamide or in the presence of 0.05-100 mM iodacetamide added prior to the addition of TEV protease. The results of these experiments are presented in FIG. 9 (FRET assay) and FIG. 11 (FP assay).

The target of data set [2] is T1, TEV protease. Briefly: TEV protease FRET assay with homodimer-forming reporter peptide. In kind it is biochemical. Particulars: substrate: fluorescein/rhodamine-labeled reporter peptide homodimer; FIG. 8; read-out: Km of TEV protease by FRET analysis. The protocol: as §1
For FRET analysis the reporter peptide (KGR MRCLEDR VENLYSQ SYHLENE VARLRRL VGELAAK) (SEQ ID NO: 32) was labeled with fluorescein or rhodamine. The labeled peptides were incubated at a total peptide concentration of 6 μM (6:1 ratio, R:F) in 50 mM Tris pH 8, and 0.5 mM EDTA, and 1 mM DTT at 30° C. for 15 minutes in a total volume of 100 μl. Proteolytic cleavage was initiated by the addition of TEV protease (20U, Gibco Life Technologies), and monitored during the time course of the reaction by measuring the emission of fluorescein (excitation 485 nm, emission 520 nm) over time. Initial rates of change of fluorescein emission were determined for the linear portion of the reaction.
as §2

B1: TEV protease: Tobacco Etch Virus protease, Gibco Life Technologies (protein)
chain: GESLFKGPRDYNPISSTICHLTNESDGHTTSLYGIGFGPFIITNKHLFRRNNGTLLVQSLHGVFKVKNTTTLQQHLIDGRDMIIIRMPKDFPPFPQKLKFREPQREERICLVTTNFQTKSMSSMVSDTSCTFPSSDGIFWKHWIQTKDGQCGSPLVSTRDGFIVGIHSASNFTNTNNYFTSVPKNFMELLTNQEAQQWVSGWRLNADSVLWGGHKVFMSKPEEPFQPVKEATQLMNELVYSQ
One may read the Km as the substrate concentration at which the rate is half of its maximum. For B1, the Km in data set [1] and in data set [2] was 36 µM each time.
